Measured values from publication PMC10772564, “Structural and Biochemical Analysis of 3-Dehydroquinate Dehydratase from Corynebacterium glutamicum” (Journal of Microbiology and Biotechnology, 2023).

T1: CgDHQD (Corynebacterium glutamicum, UniProt O52377)
T1 construct: gene aroQ; full length in pET30a (NdeI/XhoI), C-terminal 6xHis tag not reported cut, E. coli BL21(DE3); by primers starts MPGKILLLN, ends DILANLKK before tag
T1 sequence (O52377 1-145): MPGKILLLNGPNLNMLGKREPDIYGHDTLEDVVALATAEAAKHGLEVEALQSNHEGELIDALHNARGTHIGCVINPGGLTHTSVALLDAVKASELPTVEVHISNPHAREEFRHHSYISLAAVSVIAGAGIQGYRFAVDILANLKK


Assays:
CgDHQD [1] = biological target: T1, CgDHQD; experiment: X-ray crystal structure, […] A, co-crystallised; settings: active site, two binding modes; 0.2 M ammonium citrate tribasic pH 7.0 in the crystallisation solution
CgDHQD [2] = biological target: T2, CgDHQD (Corynebacterium glutamicum, UniProt O52377, R19A); experiment: X-ray crystal structure, […] A, crystal soaked with […] DHQ; type: binding; settings: active site; inactive variant; glycerol occupies the R19 side-chain space; pH 5.5
T2 construct: gene aroQ; full length in pET30a (NdeI/XhoI), C-terminal 6xHis tag not reported cut, E. coli BL21(DE3); by primers starts MPGKILLLN, ends DILANLKK before tag

purified protein = substrate: O=C1C[C@@](O)(C(=O)O)C[C@@H](O)[C@@H]1O; experiment: purified protein; type: biochemical, Corynebacterium glutamicum; settings: 50 mM Tris-HCl pH 8.0, room temperature, 20 nM enzyme, 50-2,000 uM substrate
[3] = biological target: the molecule itself; experiment: SEC; analytical size-exclusion chromatography, Superdex 200 Increase 10/300 GL, 150 mM NaCl, 40 mM Tris-HCl pH 8.0, 1 ml of 1 mg/ml protein, 277 K; calibrated with aldolase, ovalbumin, ribonuclease A, aprotinin
[4] = biological target: the molecule itself; experiment: crystal structure; CgDHQD R19A, 0.8 M lithium sulfate, 0.4 M ammonium sulfate, 0.1 M sodium citrate pH 5.5, soaked with 100 mM DHQ; space group C2221, six molecules per asymmetric unit, 2.0 Å

Row | Molecule | Km (purified protein) [µM] | kcat (purified protein) [s⁻¹] | also measured
1 | O=C(O)CC(O)(CC(=O)O)C(=O)O [citrate] | – | – | X-ray crystal structure, 1.80 A, co-crystallised (CgDHQD [1]): CgDHQD structure in complex with the citrate ion exhibits two different binding modes
2 | O=C1C[C@@](O)(C(=O)O)C[C@@H](O)[C@@H]1O [DHQ, 3-dehydroquinic acid] | – | – | X-ray crystal structure, 2.00 A, crystal soaked with 100 mM DHQ (CgDHQD [2]): The DHQ-bound structure of CgDHQD explained the substrate-binding mode of the enzyme
3 | 3-dehydroquinate dehydratase from Corynebacterium glutamicum, wild type (enzyme, Corynebacterium glutamicum ATCC 13032, UniProt O52377 1-145, looked up, 3-dehydroquinate dehydratase (type II DHQD, EC 4.2.1.10) of Corynebacterium glutamicum ATCC 13032; The XhoI site of pET30a probably adds LE before the His tag (surmised); also called CgDHQD; CgDHQD^WT; source: E. coli BL21 (DE3)-T1R, purified (Ni-NTA, HiTrap Q ion exchange, size exclusion); copies: 12) MPGKILLLNGPNLNMLGKREPDIYGHDTLEDVVALATAEAAKHGLEVEALQSNHEGELIDALHNARGTHIGCVINPGGLTHTSVALLDAVKASELPTVEVHISNPHAREEFRHHSYISLAAVSVIAGAGIQGYRFAVDILANLKK | 348.20 | 150.19 | stoichiometry N [3]: 12
4 | 3-dehydroquinate dehydratase from Corynebacterium glutamicum, R19A variant (enzyme, Corynebacterium glutamicum ATCC 13032, UniProt O52377 1-145, looked up, also called CgDHQD^R19A; source: E. coli BL21 (DE3)-T1R, purified in the same manner as wild type (Ni-NTA, ion exchange, size exclusion)) MPGKILLLNGPNLNMLGKAEPDIYGHDTLEDVVALATAEAAKHGLEVEALQSNHEGELIDALHNARGTHIGCVINPGGLTHTSVALLDAVKASELPTVEVHISNPHAREEFRHHSYISLAAVSVIAGAGIQGYRFAVDILANLKK | – | – | binding result [4]: binds
5 | CgDHQD (Corynebacterium glutamicum ATCC 13032; S103T) (protein, full length in pET30a (NdeI/XhoI), C-terminal 6xHis tag not reported cut, E. coli BL21(DE3); by primers starts MPGKILLLN, ends DILANLKK before tag) MPGKILLLNGPNLNMLGKREPDIYGHDTLEDVVALATAEAAKHGLEVEALQSNHEGELIDALHNARGTHIGCVINPGGLTHTSVALLDAVKASELPTVEVHITNPHAREEFRHHSYISLAAVSVIAGAGIQGYRFAVDILANLKK | 745.3 | 199.67 | –
